Results from the supplement of paper PMC5998384.

How the values were obtained:
HeLa Kyoto [1] = experiment: solubility in G1/S (NP-40 vs SDS abundance) (log2 ratio); higher = more soluble; details: cell cycle stage: G1/S
HeLa Kyoto [2] = experiment: solubility change mitosis vs G1/S (difference of NP-40 vs SDS log2 ratios) (log2 ratio difference); higher = more soluble in mitosis
HeLa Kyoto [3] = experiment: thermal stability score vs G1/S (z-score of summed log2 fold changes over temperatures); higher = more thermally stable than in G1/S
[4] = cell cycle stage: early G1 (4.5 h after nocodazole release)
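Wherever solubility change mitosis vs G1/S (difference of NP-40 vs SDS log2 ratios) is given: synchronized HeLa Kyoto cells (double thymidine block for G1/S, nocodazole release for mitosis), protein amounts in NP-40 versus SDS lysates quantified by mass spectrometry, three biological replicates.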
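Wherever solubility in G1/S (NP-40 vs SDS abundance) is given: HeLa Kyoto cells arrested at G1/S by double thymidine block, proteins quantified by TMT10plex mass spectrometry in mild NP-40 versus SDS extracts, three biological replicates.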
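Wherever thermal stability score vs G1/S (z-score of summed log2 fold changes over temperatures) is given: synchronized HeLa Kyoto cells, proteins quantified by TMT10plex mass spectrometry, three biological replicates, mitosis taken 0.5 h after nocodazole release, G1/S directly after double thymidine block.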

Substance	solubility in G1/S (log2) (HeLa Kyoto [1])	solubility change mitosis (log2) (HeLa Kyoto [2])	thermal stability score (HeLa Kyoto [3]; [4])	thermal stability score (HeLa Kyoto [3]; cell cycle stage: mitosis)
METRYNLKSPAVKRLMKEAAELKDPTDHYHAQPLEDNLFEWHFTVRGPPDSDFDGGVYHGRIVLPPEYPMKPPSIILLTANGRFEVGKKICLSISGHHPETWQPSWSIRTALLAIIGFMPTKGEGAIGSLDYTPEERRALAKKSQDFCCEGCGSAMKDVLLPLKSGSDSSQADQEAKELARQISFKAEVNSSGKTISESDLNHSFSLTDLQDDIPTTFQGATASTSYGLQNSSAASFHQPTQPVAKNTSMSPRQRRAQQQSQRRLSTSPDVIQGHQPRDNHTDHGGSAVLIVILTLALAALIFRRIYLANEYIFDFEL [UBE2J1]	0.222	0.00691	-0.0441	1.77
MPPKTPRKTAATAAAAAAEPPAPPPPPPPEEDPEQDSGPEDLPLVRLEFEETEEPDFTALCQKLKIPDHVRERAWLTWEKVSSVDGVLGGYIQKKKELWGICIFIAAVDLDEMSFTFTELQKNIEISVHKFFNLLKEIDTSTKVDNAMSRLLKKYDVLFALFSKLERTCELIYLTQPSSSISTEINSALVLKVSWITFLLAKGEVLQMEDDLVISFQLMLCVLDYFIKLSPPMLLKEPYKTAVIPINGSPRTPRRGQNRSARIAKQLENDTRIIEVLCKEHECNIDEVKNVYFKNFIPFMNSLGLVTSNGLPEVENLSKRYEEIYLKNKDLDARLFLDHDKTLQTDSIDSFETQRTPRKSNLDEEVNVIPPHTPVRTVMNTIQQLMMILNSASDQPSENLISYFNNCTVNPKESILKRVKDIGYIFKEKFAKAVGQGCVEIGSQRYKLGVRLYYRVMESMLKSEEERLSIQNFSKLLNDNIFHMSLLACALEVVMATYSRSTSQNLDSGTDLSFPWILNVLNLKAFDFYKVIESFIKAEGNLTREMIKHLERCEHRIMESLAWLSDSPLFDLIKQSKDREGPTDHLESACPLNLPLQNNHTAADMYLSPVRSPKKKGSTTRVNSTANAETQATSAFQTQKPLKSTSLSLFYKKVYRLAYLRLNTLCERLLSEHPELEHIIWTLFQHTLQNEYELMRDRHLDQIMMCSMYGICKVKNIDLKFKIIVTAYKDLPHAVQETFKRVLIKEEEYDSIIVFYNSVFMQRLKTNILQYASTRPPTLSPIPHIPRSPYKFPSSPLRIPGGNIYISPLKSPYKISEGLPTPTKMTPRSRILVSIGESFGTSEKFQKINQMVCNSDRVLKRSAEGSNPPKPLKKLRFDIEGSDEADGSKHLPGESKFQQKLAEMTSTRTRMQKQKMNDSMDTSNKEEK [RB1]	0.147	-0.0546	0.441	2.18
MLPRRLLAAWLAGTRGGGLLALLANQCRFVTGLRVRRAQQIAQLYGRLYSESSRRVLLGRLWRRLHGRPGHASALMAALAGVFVWDEERIQEEELQRSINEMKRLEEMSNMFQSSGVQHHPPEPKAQTEGNEDSEGKEQRWEMVMDKKHFKLWRRPITGTHLYQYRVFGTYTDVTPRQFFNVQLDTEYRKKWDALVIKLEVIERDVVSGSEVLHWVTHFPYPMYSRDYVYVRRYSVDQENNMMVLVSRAVEHPSVPESPEFVRVRSYESQMVIRPHKSFDENGFDYLLTYSDNPQTVFPRYCVSWMVSSGMPDFLEKLHMATLKAKNMEIKVKDYISAKPLEMSSEAKATSQSSERKNEGSCGPARIEYA [STARD7]	0.128	-0.155	-1.31	-0.89
MLGPCMLLLLLLLGLRLQLSLGIIPVEEENPDFWNREAAEALGAAKKLQPAQTAAKNLIIFLGDGMGVSTVTAARILKGQKKDKLGPEIPLAMDRFPYVALSKTYNVDKHVPDSGATATAYLCGVKGNFQTIGLSAAARFNQCNTTRGNEVISVMNRAKKAGKSVGVVTTTRVQHASPAGTYAHTVNRNWYSDADVPASARQEGCQDIATQLISNMDIDVILGGGRKYMFRMGTPDPEYPDDYSQGGTRLDGKNLVQEWLAKRQGARYVWNRTELMQASLDPSVTHLMGLFEPGDMKYEIHRDSTLDPSLMEMTEAALRLLSRNPRGFFLFVEGGRIDHGHHESRAYRALTETIMFDDAIERAGQLTSEEDTLSLVTADHSHVFSFGGYPLRGSSIFGLAPGKARDRKAYTVLLYGNGPGYVLKDGARPDVTESESGSPEYRQQSAVPLDEETHAGEDVAVFARGPQAHLVHGVQEQTFIAHVMAFAACLEPYTACDLAPPAGTTDAAHPGRSVVPALLPLLAGTLLLLETATAP [ALPP]	-0.46	-0.115	-3.03	-2.91
MSRPVRNRKVVDYSQFQESDDADEDYGRDSGPPTKKIRSSPREAKNKRRSGKNSQEDSEDSEDKDVKTKKDDSHSAEDSEDEKEDHKNVRQQRQAASKAASKQREMLMEDVGSEEEQEEEDEAPFQEKDSGSDEDFLMEDDDDSDYGSSKKKNKKMVKKSKPERKEKKMPKPRLKATVTPSPVKGKGKVGRPTASKASKEKTPSPKEEDEEPESPPEKKTSTSPPPEKSGDEGSEDEAPSGED [NUCKS1]	0.444	0.307	-0.14	1.15
MQRRRRPPPPTSRLPEGCGGGGGGSEEVEVQFSAGRWGSAAAVSAAAAAATRSTEEEEERLEREHFWKIINAFRYYGTSMHERVNRTERQFRSLPANQQKLLPQFLLHLDKIRKCIDHNQEILLTIVNDCIHMFENKEYGEDGNGKIMPASTFDMDKLKSTLKQFVRDWSETGKAERDACYQPIIKEILKNFPKERWDPSKVNILVPGAGLGRLAWEIAMLGYACQGNEWSFFMLFSSNFVLNRCSEINKYKLYPWIHQFSNNRRSADQIRPIFFPDVDPHSLPPGSNFSMTAGDFQEIYSECNTWDCIATCFFIDTAHNVIDYIDTIWKILKPGGIWINLGPLLYHFENLANELSIELSYEDIKNVVLQYGFKVEVEKESVLSTYTVNDLSMMKYYYECVLFVVRKPQ [CARNMT1]	-0.164	-0.117	1.2	1.42
MSENLDKSNVNEAGKSKSNDSEEGLEDAVEGADEALQKAIKSDSSSPQRVQRPHSSPPRFVTVEELLETARGVTNMALAHEIVVNGDFQIKPVELPENSLKKRVKEIVHKAFWDCLSVQLSEDPPAYDHAIKLVGEIKETLLSFLLPGHTRLRNQITEVLDLDLIKQEAENGALDISKLAEFIIGMMGTLCAPARDEEVKKLKDIKEIVPLFREIFSVLDLMKVDMANFAISSIRPHLMQQSVEYERKKFQEILERQPNSLDFVTQWLEEASEDLMTQKYKHALPVGGMAAGSGDMPRLSPVAVQNYAYLKLLKWDHLQRPFPETVLMDQSRFHELQLQLEQLTILGAVLLVTFSMAAPGISSQADFAEKLKMIVKILLTDMHLPSFHLKDVLTTIGEKVCLEVSSCLSLCGSSPFTTDKETVLKGQIQAVASPDDPIRRIMESRILTFLETYLASGHQKPLPTVPGGLSPVQRELEEVAIKFARLVNYNKMVFCPYYDAILSKILVRS [TCP11L1]	0.346	0.1	1.37	1.4
APOBEC3B	-0.745	0.177	0.584	1.24
MARTTSQLYDAVPIQSSVVLCSCPSPSMVRTQTESSTPPGIPGGSRQGPAMDGTAAEPRPGAGSLQHAQPPPQPRKKRPEDFKFGKILGEGSFSTVVLARELATSREYAIKILEKRHIIKENKVPYVTRERDVMSRLDHPFFVKLYFTFQDDEKLYFGLSYAKNGELLKYIRKIGSFDETCTRFYTAEIVSALEYLHGKGIIHRDLKPENILLNEDMHIQITDFGTAKVLSPESKQARANSFVGTAQYVSPELLTEKSACKSSDLWALGCIIYQLVAGLPPFRAGNEYLIFQKIIKLEYDFPEKFFPKARDLVEKLLVLDATKRLGCEEMEGYGPLKAHPFFESVTWENLHQQTPPKLTAYLPAMSEDDEDCYGNYDNLLSQFGCMQVSSSSSSHSLSASDTGLPQRSGSNIEQYIHDLDSNSFELDLQFSEDEKRLLLEKQAGGNPWHQFVENNLILKMGPVDKRKGLFARRRQLLLTEGPHLYYVDPVNKVLKGEIPWSQELRPEAKNFKTFFVHTPNRTYYLMDPSGNAHKWCRKIQEVWRQRYQSHPDAAVQ [PDPK1]	0.156	-0.222	1.38	0.777
MKLVNIWLLLLVVLLCGKKHLGDRLEKKSFEKAPCPGCSHLTLKVEFSSTVVEYEYIVAFNGYFTAKARNSFISSALKSSEVDNWRIIPRNNPSSDYPSDFEVIQIKEKQKAGLLTLEDHPNIKRVTPQRKVFRSLKYAESDPTVPCNETRWSQKWQSSRPLRRASLSLGSGFWHATGRHSSRRLLRAIPRQVAQTLQADVLWQMGYTGANVRVAVFDTGLSEKHPHFKNVKERTNWTNERTLDDGLGHGTFVAGVIASMRECQGFAPDAELHIFRVFTNNQVSYTSWFLDAFNYAILKKIDVLNLSIGGPDFMDHPFVDKVWELTANNVIMVSAIGNDGPLYGTLNNPADQMDVIGVGGIDFEDNIARFSSRGMTTWELPGGYGRMKPDIVTYGAGVRGSGVKGGCRALSGTSVASPVVAGAVTLLVSTVQKRELVNPASMKQALIASARRLPGVNMFEQGHGKLDLLRAYQILNSYKPQASLSPSYIDLTECPYMWPYCSQPIYYGGMPTVVNVTILNGMGVTGRIVDKPDWQPYLPQNGDNIEVAFSYSSVLWPWSGYLAISISVTKKAASWEGIAQGHVMITVASPAETESKNGAEQTSTVKLPIKVKIIPTPPRSKRVLWDQYHNLRYPPGYFPRDNLRMKNDPLDWNGDHIHTNFRDMYQHLRSMGYFVEVLGAPFTCFDASQYGTLLMVDSEEEYFPEEIAKLRRDVDNGLSLVIFSDWYNTSVMRKVKFYDENTRQWWMPDTGGANIPALNELLSVWNMGFSDGLYEGEFTLANHDMYYASGCSIAKFPEDGVVITQTFKDQGLEVLKQETAVVENVPILGLYQIPAEGGGRIVLYGDSNCLDDSHRQKDCFWLLDALLQYTSYGVTPPSLSHSGNRQRPPSGAGSVTPERMEGNHLHRYSKVLEAHLGDPKPRPLPACPRLSWAKPQPLNETAPSNLWKHQKLLSIDLDKVVLPNFRSNRPQVRPLSPGESGAWDIPGGIMPGRYNQEVGQTIPVFAFLGAMVVLAFFVVQINKAKSRPKRRKPRVKRPQLMQQVHPPKTPSV [MBTPS1]	0.0339	-0.198	-1.77	-1.37
MSKISEAVKRARAAFSSGRTRPLQFRIQQLEALQRLIQEQEQELVGALAADLHKNEWNAYYEEVVYVLEEIEYMIQKLPEWAADEPVEKTPQTQQDELYIHSEPLGVVLVIGTWNYPFNLTIQPMVGAIAAGNSVVLKPSELSENMASLLATIIPQYLDKDLYPVINGGVPETTELLKERFDHILYTGSTGVGKIIMTAAAKHLTPVTLELGGKSPCYVDKNCDLDVACRRIAWGKFMNSGQTCVAPDYILCDPSIQNQIVEKLKKSLKEFYGEDAKKSRDYGRIISARHFQRVMGLIEGQKVAYGGTGDAATRYIAPTILTDVDPQSPVMQEEIFGPVLPIVCVRSLEEAIQFINQREKPLALYMFSSNDKVIKKMIAETSSGGVAANDVIVHITLHSLPFGGVGNSGMGSYHGKKSFETFSHRRSCLVRPLMNDEGLKVRYPPSPAKMTQH [ALDH3A1]	0.316	-0.153	0.258	-0.475
MKKSIGILSPGVALGMAGSAMSSKFFLVALAIFFSFAQVVIEANSWWSLGMNNPVQMSEVYIIGAQPLCSQLAGLSQGQKKLCHLYQDHMQYIGEGAKTGIKECQYQFRHRRWNCSTVDNTSVFGRVMQIGSRETAFTYAVSAAGVVNAMSRACREGELSTCGCSRAARPKDLPRDWLWGGCGDNIDYGYRFAKEFVDARERERIHAKGSYESARILMNLHNNEAGRRTVYNLADVACKCHGVSGSCSLKTCWLQLADFRKVGDALKEKYDSAAAMRLNSRGKLVQVNSRFNSPTTQDLVYIDPSPDYCVRNESTGSLGTQGRLCNKTSEGMDGCELMCCGRGYDQFKTVQTERCHCKFHWCCYVKCKKCTEIVDQFVCK [WNT5A]	-0.0436	-0.0777	-0.194	0.339
